Residue numbers refer to the chain shown, from its start. Entries after “also recorded” stand apart in the source; their conditions may differ. Ends that are not written are not given here.
T1: TF/heparanase complex (Homo sapiens, UniProt Q9Y251)
T1 construct: endogenous in cells; host or cells: ICR mice in vivo (TF endogenous)
T1 sequence (Q9Y251 36-543): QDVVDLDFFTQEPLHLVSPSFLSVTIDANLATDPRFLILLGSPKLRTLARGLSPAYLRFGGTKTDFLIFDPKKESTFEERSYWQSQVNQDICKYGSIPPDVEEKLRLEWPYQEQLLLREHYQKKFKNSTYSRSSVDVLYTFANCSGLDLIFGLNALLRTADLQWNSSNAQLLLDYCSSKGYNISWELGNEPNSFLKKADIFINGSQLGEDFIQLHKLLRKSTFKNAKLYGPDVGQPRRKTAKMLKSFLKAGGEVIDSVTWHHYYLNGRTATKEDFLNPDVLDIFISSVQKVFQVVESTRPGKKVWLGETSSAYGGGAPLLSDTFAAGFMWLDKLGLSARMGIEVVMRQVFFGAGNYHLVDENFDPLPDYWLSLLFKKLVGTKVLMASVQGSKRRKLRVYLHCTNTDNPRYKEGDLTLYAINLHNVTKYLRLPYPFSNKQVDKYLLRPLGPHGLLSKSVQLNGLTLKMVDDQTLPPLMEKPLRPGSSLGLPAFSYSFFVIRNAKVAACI

B1: double mutant inactive heparanase: heparanase mutated at Glu225 and Glu343, critical for the enzyme catalytic activity (protein)
chain: T1 sequence (Q9Y251 36-543) with E190A, E308A
B2: TFPI-2: recombinant human tissue factor pathway inhibitor 2, purchased from R&D (protein, UniProt P48307 23-235, looked up)
Tissue factor pathway …: DAAQEPTGNNAEICLLPLDYGPCRALLLRYYYDRYTQSCRQFLYGGCEGNANNFYTWEACDDACWRIEKVPKVCRLQVSVDDQCEGSTEKYFFNLSSMTCEKFFSGGCHRNRIENRFPDEATCMGFCAPKKIPSFCYSPKDEGLCSANVTRYYFNPRYRTCDAFTYTGCGGNDNNFVSREDCKRACAKALKKKKKMPKLRFASRIRKIRKKQF

Tests used:
TF/heparanase complex [1] = target: T2, TF/heparanase complex (Homo sapiens, UniProt P13726+Q9Y251, DEL111-157/INS109GSGSG); assay: Inhibition of heparanase procoagulant activity in the thrombin generation assay; format: biochemical; conditions: for heparanase procoagulant activity (thrombin generation): inhibitor added to the thrombin generation assay with heparanase
T2 construct: comprised of the 8 kDa and 50 kDa heparanase heterodimer (8+50); purchased American Diagnostica (Stanford, Conn., USA) for TF and factor VIIa; host or cells: heparanase GS3 made in house: conditioned medium of baculovirus-infected cells
T2 sequence (P13726 33-295, stated change not applied, one chain of several): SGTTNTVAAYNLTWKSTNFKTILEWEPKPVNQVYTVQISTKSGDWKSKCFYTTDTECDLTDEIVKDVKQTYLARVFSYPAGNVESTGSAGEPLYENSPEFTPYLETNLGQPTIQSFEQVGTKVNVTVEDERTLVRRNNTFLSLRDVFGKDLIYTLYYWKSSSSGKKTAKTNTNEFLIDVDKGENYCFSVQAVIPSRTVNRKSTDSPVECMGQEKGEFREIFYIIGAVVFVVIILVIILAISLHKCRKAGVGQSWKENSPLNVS
Experimental: FIG. 6B. Heparanase procoagulant activity is attenuated by TFPI and TFPI-2. Same as FIG. 1D, except that recombinant human TFPI and TFPI-2 were added prior to heparanase addition. The mean value±SD of three independent experiments is shown.
FIG. 6C. Heparanase procoagulant activity is abrogated by an anti-Xa derivative.
In order to verify that factor Xa produced in the presence of heparanase is active, thrombin generation, the next step in the coagulation cascade, was examined. The experiment described above (FIG. 1A) was repeated and plasma-derived human prothrombin (222 μM) was added following the addition of factor X. After 15 minutes at 37° C., chromogenic substrate for thrombin was added (1 mM). In the presence of heparanase, thrombine generation was increased (FIG. 1D).

TF/heparanase complex [2] = target: T1, TF/heparanase complex; assay: TF/heparanase inhibitory peptides in heparanase-injected ICR mice (TAT by ELISA); format: in vivo; conditions: peptide intra-peritoneal half an hour after heparanase, blood after 4 hours
Experimental: FIG. 23B. Heparanase was injected intra-peritoneal to ICR mice. Inhibitory peptides to TF/heparanase complex (number 5, 6, 21) were injected intra-peritoneal half an hour after heparanase. Four hours later the blood was drawn and Thrombin-antithrombin (TAT) level was measured by ELISA.
Methods: ICR mice, heparanase knock-out mice and heparanase over-expression mice were studied. Sepsis was induced by intra-peritoneal injection of lipopolysaccharides (LPS). Inhibitory peptides to TF/heparanase complex (number 11, 22, 5, 6, 7, 12, and 21 [SEQ IDs: 1-7]) were injected intra-peritoneal half an hour after heparanase or LPS. After 4 hours blood was obtained via sub-mandibular plexus puncture followed by mice sacrificing. Levels of thrombin-antithrombin (TAT), D-Dimer and IL-6 were tested using ELISA. Western blot to plasma factor VII and immunostaining of fibrinogen in lung, kidney and spleen were performed.

TF/heparanase complex [3] = target: T2, TF/heparanase complex; assay: Inhibition of heparanase procoagulant activity in the factor Xa generation assay; format: biochemical; conditions: for procoagulant effect of heparanase on Xa level: co-addition of peptide with heparanase, FIG. 23A; for procoagulant effect induced by heparanase (Xa level): peptide 25 μg/ml (15 μM), heparanase 1.5 μM, FIG. 26
Experimental: FIG. 23A. Factor Xa levels was evaluated by chromogenic substrate in an in-vitro assay including purified proteins of tissue factor (TF), factor VIIa, factor X and assay buffer.
FIG. 26. Factor Xa levels was evaluated by chromogenic substrate in an in-vitro assay including lipidated TF (0.004 μM), factor VIIa (0.04 μM) and factor X (1.4 μM). The Xa level was studied by a chromogenic substrate (1 mM).
(§1) Following preliminary experiments to quantify the appropriate protein doses, we performed a basic experiment of factor Xa generation in the following manner: the concentrations mentioned are the final concentrations. Lipidated recombinant human TF (0.004 μM, […]), recombinant human factor VIIa (0.04 μM) and plasma-derived human factor X (1.4 μM) were incubated in 50 μL assay buffer (0.06 M Tris, 0.04 M NaCl, 2 mM CaCl 2, 0.04% bovine serum albumin, pH 8.4) to a total volume of 125 μL in a 96-well sterile plate. After 15 min at 37° C., chromogenic substrate for factor Xa was added (1 mM). After 20 min, the reaction was stopped with 50 μL of glacial acetic acid and the level of factor Xa generation was determined using an enzyme-linked immunosorbent assay (ELISA) plate reader (Power Wave XS, BIO-TEK, VT, USA). In order to visualize the increased production of factor Xa by western blotting, the experiment was repeated with 7 μM factor X. After 15 min at 37° C., half of the reaction volume was subjected to blotting using monoclonal anti-human factor X/Xa heavy chain antibody.
The coagulation assay included the peptides and the following components: lipidated TF (0.004 μM), factor VIIa (0.04 μM) and factor X (1.4 μM). The Xa level was studied by a chromogenic substrate (1 mM).

[4] = Water solubility of the peptides; format: physicochemical
TF-factor VIIa complex = target: T3, TF-factor VIIa complex (Homo sapiens, UniProt P13726); assay: Activated factor X generation assay with purified TF, factor VIIa and factor X (chromogenic substrate); format: biochemical; conditions: overnight serum-free medium of 293 HEK cells over-expressing heparanase species, compared to mock
T3 construct: purchased American Diagnostica (Stanford, Conn., USA)
T3 sequence (P13726 33-295): as the sequence (P13726 33-295, stated change not applied, one chain of several) above
T3 sequence (P08709 61-212 partner limits assumed): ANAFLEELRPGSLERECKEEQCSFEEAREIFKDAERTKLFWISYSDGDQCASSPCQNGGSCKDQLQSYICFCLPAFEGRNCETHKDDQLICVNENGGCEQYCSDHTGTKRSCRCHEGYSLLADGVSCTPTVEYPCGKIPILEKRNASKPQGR
T3 sequence (P08709 213-466 partner limits assumed): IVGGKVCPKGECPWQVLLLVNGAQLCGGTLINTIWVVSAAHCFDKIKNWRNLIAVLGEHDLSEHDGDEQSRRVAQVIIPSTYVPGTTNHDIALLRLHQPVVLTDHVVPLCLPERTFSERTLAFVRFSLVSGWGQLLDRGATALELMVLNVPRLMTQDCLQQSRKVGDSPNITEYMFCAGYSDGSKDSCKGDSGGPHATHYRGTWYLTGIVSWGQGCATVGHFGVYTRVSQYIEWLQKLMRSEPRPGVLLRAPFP
Experimental: FIG. 1A. Recombinant human TF, recombinant human factor VIIa, and plasma-derived human factor X were incubated (15 min, 37° C.) in a total assay volume of 125 μL. Chromogenic substrate for the detection of factor Xa was then added (final concentration 1 mM). Recombinant active heparanase GS3 (Hepa) was added prior to the addition of the coagulation factors. The mean value±SD of three independent experiments in shown. […]
FIG. 1C. […] The mean value of two experiments is shown. Note a 2-fold increase in coagulation activity when the medium contained heparanase or its derivatives.
as §1
The factor Xa generation assay was performed as described in the Design and Methods section with increasing doses of recombinant human heparanase (GS3) added prior to the addition of the coagulation factors. […] It should be noted that factor X is composed of two polypeptide chains, a heavy chain with a molecular weight of 38 kDa and a light chain with a molecular weight of 18 kDa joined by a dipeptide Arg-Arg. The factor VIIa-TF complex activates the conversion of factor X to factor Xa by cleaving the heavy chain to a 33 kDa peptide. […] In order to exclude contamination of the heparanase preparation during the routine procedure of purification described in the Design and Methods section, the inventors tested the effect of overnight serum-free without phenol medium of 293 HEK cells over-expressing heparanase and its derivatives compared to mock. The proteins were further purified from the culture medium and analyzed. Similar quantities of proteins were obtained from the culture media.

Row | Molecule | procoagulant effect of heparanase on Xa level (TF/heparanase complex [3]) | procoagulant effect induced by heparanase (Xa level) (TF/heparanase complex [3]) | also measured
1 | O=C(NC[C@H]1CN(c2ccc(N3CCOCC3=O)cc2)C(=O)O1)c1ccc(Cl)s1 [Rivaroxaban, reference compound] |  |  | heparanase procoagulant activity (thrombin generation) (TF/heparanase complex [1]): abolished the effect of heparanase; heparanase procoagulant activity (thrombin generation) (TF/heparanase complex [1]; listed as rivaroxaban): abolished the procoagulant effect of heparanase
2 | AEICLLPLDYGPCR (cysteine pairing not given here) [Peptide 6] | abolished the procoagulant effect of heparanase | inhibited the procoagulant effect induced by heparanase | procoagulant effect of heparanase (TAT level) (TF/heparanase complex [2]): completely abolished the procoagulant effect of heparanase
3 | Ac-AEICLLPLDYGPCR (cysteine pairing not given here) [Peptide 6-Ac] |  | inhibited the procoagulant effect induced by heparanase | 
4 | Ac-Ile Cys Leu Leu Pro Leu Asp Tyr Gly Pro Cys Arg Ala Leu (Ac-ICLLPLDYGPCRAL; cysteine pairing not given here) [Peptide 5-Ac] |  | inhibited the procoagulant effect induced by heparanase | 
5 | Ac-NNAEICLLPLDYGP [Peptide 7-Ac] |  |  | water solubility compared to non-acetylated counterpart [4]: more water soluble than their corresponding non acetylated counterparts
6 | ICLLPLDYGPCRAL (cysteine pairing not given here) [Peptide 5] | abolished the procoagulant effect of heparanase | inhibited the procoagulant effect induced by heparanase | procoagulant effect of heparanase (TAT level) (TF/heparanase complex [2]): markedly decreased heparanase effect
7 | NANNFYTWEAC [Peptide 21] | abolished the procoagulant effect of heparanase |  | procoagulant effect of heparanase (TAT level) (TF/heparanase complex [2]): markedly decreased heparanase effect
8 | NNAEICLLPLDYGP [Peptide 7] | abolished the procoagulant effect of heparanase | inhibited the procoagulant effect induced by heparanase | 
9 | RYYYDRYTQSCRQF [Peptide 12] | abolished the procoagulant effect of heparanase |  | 
10 | TFPI: recombinant human tissue factor pathway inhibitor [reference compound] |  |  | heparanase procoagulant activity (thrombin generation) (TF/heparanase complex [1]): attenuated the effect; also recorded: mildly attenuated thrombin generation but failed to abolish the procoagulant effect of heparanase
11 | B1 |  |  | increase in factor Xa levels (TF-factor VIIa complex): increased factor Xa levels
12 | B2 |  |  | heparanase procoagulant activity (thrombin generation) (TF/heparanase complex [1]): attenuated the effect; also recorded: mildly attenuated thrombin generation but failed to abolish the procoagulant effect of heparanase; inhibitory potency compared to TFPI in the presence of heparanase (TF/heparanase complex [1]; thrombin generation with heparanase): more effective inhibitor than TFPI; also recorded: more potent than TFPI

Source: patent US11448657B2, “Methods and kits for assessing Heparanase procoagulant activity, compositions comprising Heparanase, and methods for the treatment of coagulation-related disorders” (RAMBAM MED-TECH, priority 2011, dated 2022)
